The assay has as its target MpATG8A (M. polymorpha). As to the kind of experiment: ITC.

MpATG8A (M. polymorpha), sequence (chain, as listed by the source): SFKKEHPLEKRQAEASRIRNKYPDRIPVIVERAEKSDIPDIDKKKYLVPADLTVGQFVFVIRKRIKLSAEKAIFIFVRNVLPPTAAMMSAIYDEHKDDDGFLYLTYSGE

Turning to DWEIV [canonical AIM peptide (AIM wt)], binding was characterised by a dissociation constant (Kd) of 55.6 nM.
